Source: publication PMC4376295 (Nature communications, 2014)
Residue numbers refer to the chain shown, from its start. In names and notes the source's numbering stands. Each block holds one binder with its values, some of them ahead of it.

Legend:
[1] = target: T1, HerA harbouring both M51L and M82L mutations (Sulfolobus solfataricus, UniProt Q97WG8 1-500, M51L | M82L); experiment: SEC-coupled SAXS
T1 sequence (looked up): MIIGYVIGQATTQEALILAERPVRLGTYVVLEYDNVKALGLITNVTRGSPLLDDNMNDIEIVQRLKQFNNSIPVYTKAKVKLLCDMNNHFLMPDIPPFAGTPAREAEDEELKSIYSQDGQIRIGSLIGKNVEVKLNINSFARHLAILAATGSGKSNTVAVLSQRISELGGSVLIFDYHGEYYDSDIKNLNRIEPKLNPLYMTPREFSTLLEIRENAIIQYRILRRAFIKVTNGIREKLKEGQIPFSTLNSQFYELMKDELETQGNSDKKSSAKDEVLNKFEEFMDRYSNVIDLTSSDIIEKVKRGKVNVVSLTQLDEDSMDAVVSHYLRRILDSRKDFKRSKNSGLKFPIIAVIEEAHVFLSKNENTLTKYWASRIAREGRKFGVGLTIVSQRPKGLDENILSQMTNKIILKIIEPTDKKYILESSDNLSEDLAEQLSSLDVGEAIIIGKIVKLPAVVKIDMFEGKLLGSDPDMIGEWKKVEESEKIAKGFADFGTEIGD

SEC-coupled SAXS = target: the molecule itself; experiment: SEC-coupled SAXS
[2] = target: T2, native HerA (S. solfataricus, Sso2251) (Sulfolobus solfataricus, UniProt Q97WG8 1-500); experiment: SEC
T2 sequence (looked up): T1 sequence (looked up) with L51M, L82M

binding result [1]: binds
B1: NurA D58A (nuclease inactivated) (enzyme, Sulfolobus solfataricus, UniProt Q97WH1 1-339, looked up)
chain: MIRKIYDKLVESHNEIKNQIYNIANYLKQEIQDKVNEYWNEYVINHEQSETCKFVAIAGGSFGRPMRIGIVYAVGAESVIGDNKGVKTLSEDGQIGIFKPGNDAQERISLLMEALELSLALRDGSKGDYILMDGSLSKKIGNKVDIQQFSDEELKLIRNVDLNGIISIKDERKMRDLLMLLNQFLVSKIIEEYDGNVLWISKVSRGRDLFGTDYPDITVLELFTEKRGFSKLIIKNIDIEKISEIPEIEVLRKMEYTTFYTRLDNGKRVIRVDIVGRVDEKIVKEIMDRLSGVSIKGYPFPLLKAHMDVRFSAMDREKIIKLVGSKLHKDIEWWPSQFY
binding result (SEC-coupled SAXS): binds

binding result [2]: binds
B2: native NurA (S. solfataricus) (enzyme, Sulfolobus solfataricus, UniProt Q97WH1 1-339, looked up)
chain: B1 chain with A58D
